Data as given in article doi:10.1101/2025.05.13.653872, “A novel non-catalytic function of PA2803-encoded PcrP contributes to polymyxin B resistance in P. aeruginosa and redefines the functional role of the PA2803 subfamily” (bioRxiv, 2025).

Target: the molecule itself
Experiment: cross-linking; 50 μM purified PcrP with 0.02, 0.05, 0.1 and 0.2% glutaraldehyde for 2 min in 50 mM NaCl, 1% glycerol, 20 mM HEPES pH 7.8; stopped with Tris-HCl pH 8.0; 12% SDS-PAGE, Coomassie

B1: 6XHis-PcrP (PA2803), recombinant, purified (natural protein)
chain: MPSSDQLPRFTALLFGLSGGLVDFGARTLSLALLRSHPHSPAEHLRDASLLPFAEAQSFLLRRKPNKSERQRLEQALDEAAGEQAEAIAGAVALLESLDEQRIPYAWQDELPESVCQRLAAPLGRANALIPLAGARPWPAPDGCWQALARLGIERLDGCVLVSAQPRQLQAGLNAGLWTIGLAASGPSCGLSPADWDALGHTERDRLRADATLELYRLGVHSVIDHLGELQPCLHDLAVRRLKGEKP
notes: PcrP (PA2803), P. aeruginosa PAO1; No tag cleavage step is described; The reverse primer carries the stop codon, so the His tag of the vector should be N-terminal; also called 6XHis-PA2803; pAAK001; source: E. coli BL21(DE3), purified (Ni-NTA)
Q: How did the “stoichiometry N” value turn out when B1 was run?
A: 2
